Results taken from the Immune Epitope Database (IEDB).

Key:
[1] = target: HLA-A*11:01; test: IEDB peptide-MHC binding, purified MHC/direct/fluorescence; filed as Kd, often an IC50 or EC50 that approximates it; ≥ and ≤ were set here for values at or beyond the usual limits of such assays
[2] = target: HLA-A*31:01; test: IEDB peptide-MHC binding, purified MHC/competitive/fluorescence; filed as Kd, often an IC50 or EC50 that approximates it; ≥ and ≤ were set here for values at or beyond the usual limits of such assays
[3] = target: HLA-A*24:03; test: as above
[4] = target: HLA-B*57:01; test: as above
[5] = target: HLA-B*15:17; test: as above
[6] = target: HLA-A*02:01; test: as above; settings: source organism: Mus musculus
[7] = target: HLA-A*03:01; test: as above
[8] = target: HLA-B*51:01; test: as above
[9] = target: HLA-B*39:01; test: as above
[10] = target: HLA-A*26:01; test: as above
[11] = target: HLA-B*18:01; test: as above; settings: source organism: Mus musculus
[12] = target: HLA-B*27:03; test: as above
[13] = target: HLA-A*01:01; test: IEDB peptide-MHC binding, purified MHC/direct/fluorescence; filed as Kd, often an IC50 or EC50 that approximates it; ≥ and ≤ were set here for values at or beyond the usual limits of such assays
[14] = target: HLA-A*29:02; test: as above; settings: source organism: Mammarenavirus machupoense
[15] = target: HLA-A*68:02; test: as above
[16] = target: HLA-B*46:01; test: IEDB peptide-MHC binding, purified MHC/competitive/fluorescence; filed as Kd, often an IC50 or EC50 that approximates it; ≥ and ≤ were set here for values at or beyond the usual limits of such assays; settings: source organism: Orthohantavirus tulaense
[17] = target: HLA-A*69:01; test: as above; settings: source organism: Orthohantavirus tulaense
[18] = target: HLA-A*03:01; test: IEDB peptide-MHC binding, purified MHC/direct/fluorescence; filed as Kd, often an IC50 or EC50 that approximates it; ≥ and ≤ were set here for values at or beyond the usual limits of such assays
[19] = target: HLA-A*03:01; test: IEDB peptide-MHC binding, purified MHC/competitive/radioactivity; filed as Kd, often an IC50 or EC50 that approximates it; ≥ and ≤ were set here for values at or beyond the usual limits of such assays; settings: source organism: Vaccinia virus WR
[20] = target: HLA-B*15:03; test: as above; settings: source organism: Vaccinia virus WR
[21] = target: HLA-A*31:01; test: as above; settings: source organism: Vaccinia virus WR
[22] = target: HLA-A*11:01; test: as above; settings: source organism: Vaccinia virus WR
[23] = target: HLA-A*33:01; test: as above; settings: source organism: Vaccinia virus WR
[24] = target: HLA-A*32:01; test: as above; settings: source organism: Vaccinia virus WR
[25] = target: HLA-A*30:01; test: as above; settings: source organism: Vaccinia virus WR
[26] = target: HLA-B*15:01; test: as above; settings: source organism: Vaccinia virus WR
[27] = target: HLA-B*08:01; test: as above; settings: source organism: Vaccinia virus WR
[28] = target: HLA-A*68:01; test: as above; settings: source organism: Vaccinia virus WR
[29] = target: HLA-B*46:01; test: IEDB peptide-MHC binding, purified MHC/direct/fluorescence; filed as Kd, often an IC50 or EC50 that approximates it; ≥ and ≤ were set here for values at or beyond the usual limits of such assays; settings: source organism: Orthohantavirus seoulense
[30] = target: HLA-B*57:01; test: as above; settings: source organism: Orthohantavirus seoulense
[31] = target: HLA-A*02:01; test: as above; settings: source organism: Orthohantavirus seoulense
[32] = target: HLA-B*07:02; test: as above; settings: source organism: Orthohantavirus seoulense
[33] = target: HLA-B*58:01; test: as above; settings: source organism: Orthohantavirus seoulense
[34] = target: HLA-A*31:01; test: as above; settings: source organism: Orthohantavirus seoulense
[35] = target: HLA-A*69:01; test: as above; settings: source organism: Orthohantavirus seoulense
[36] = target: HLA-B*27:05; test: as above; settings: source organism: Orthohantavirus seoulense
[37] = target: HLA-B*40:01; test: as above; settings: source organism: Orthohantavirus seoulense
[38] = target: HLA-B*44:02; test: as above; settings: source organism: Orthohantavirus seoulense
[39] = target: HLA-A*02:12; test: as above; settings: source organism: Limestone Canyon virus
[40] = target: HLA-B*15:01; test: as above; settings: source organism: Orthohantavirus seoulense
[41] = target: HLA-B*48:01; test: as above; settings: source organism: Orthohantavirus seoulense
[42] = target: HLA-B*18:01; test: as above; settings: source organism: Orthohantavirus seoulense
[43] = target: HLA-B*08:01; test: as above; settings: source organism: Orthohantavirus seoulense
[44] = target: HLA-A*30:01; test: IEDB peptide-MHC binding, purified MHC/competitive/fluorescence; filed as Kd, often an IC50 or EC50 that approximates it; ≥ and ≤ were set here for values at or beyond the usual limits of such assays; settings: source organism: Nostoc punctiforme PCC 73102
[45] = source organism: Yellow fever virus
[46] = source organism: Orthohantavirus tulaense
[47] = source organism: Influenza A virus (A/chicken/Viet Nam/DT-015/2004(H5N1))
[48] = source organism: Orthohantavirus seoulense
[49] = source organism: dengue virus type 1
[50] = source organism: West Nile virus

ALNTITNLK
Kd [1, 45]: 0.0086 µM
Kd [2, 45]: 0.0414 µM

AWQRTLKWF
Kd ([3]; source organism: Escherichia coli str. K-12 substr. MG1655): 0.11 µM

CLVSGLSSL
Kd ([4]; source organism: Mus musculus): ≥ 20 µM
Kd ([5]; source organism: Mus musculus): ≥ 20 µM
Kd [6]: 0.0037 µM
Kd ([7]; source organism: Mus musculus): ≥ 20 µM
Kd ([3]; source organism: Mus musculus): ≥ 20 µM
Kd ([8]; source organism: Mus musculus): ≥ 20 µM
Kd ([9]; source organism: Mus musculus): ≥ 20 µM
Kd ([10]; source organism: Mus musculus): ≥ 20 µM
Kd [11]: ≥ 20 µM
Kd ([12]; source organism: Mus musculus): ≥ 20 µM

ESSINISGY
Kd ([13]; source organism: Mammarenavirus juninense): 0.346 µM
Kd [14]: 0.23 µM

FMSRKLHRY
Kd ([13]; source organism: Orthohantavirus negraense): 0.0095 µM
Kd [15, 46]: ≥ 20 µM
Kd [16]: ≥ 20 µM
Kd [4, 46]: ≥ 20 µM
Kd [5, 46]: ≥ 20 µM
Kd [7, 46]: 8 µM
Kd [8, 46]: ≥ 20 µM
Kd [9, 46]: ≥ 20 µM
Kd [17]: ≥ 20 µM
Kd [10, 46]: ≥ 20 µM
Kd [12, 46]: ≥ 20 µM

GIPLYDAIK
Kd [18, 47]: ≥ 20 µM
Kd [1, 47]: 7.78 µM
Kd ([2]; source organism: Influenza A virus (A/X-31(H3N2))): ≥ 20 µM

KAFNHASVK
Kd [19]: 0.00613 µM
Kd [20]: 0.282 µM
Kd [21]: 0.0297 µM
Kd [22]: 0.00931 µM
Kd [23]: ≥ 47.7 µM
Kd [24]: 3.64 µM
Kd [25]: 0.0347 µM
Kd [26]: 0.462 µM
Kd [27]: 0.751 µM
Kd [28]: 0.0176 µM

KMFTFWYMR
Kd ([18]; source organism: Fowlpox virus): 0.387 µM
Kd ([1]; source organism: Fowlpox virus): 0.0063 µM
Kd ([2]; source organism: Fowlpox virus): 0.00137 µM

KPKHLYVSM
Kd [29]: ≥ 20 µM
Kd [30]: ≥ 20 µM
Kd [31]: ≥ 20 µM
Kd [32]: 0.0844 µM
Kd [18, 48]: ≥ 20 µM
Kd [33]: ≥ 20 µM
Kd [34]: ≥ 20 µM
Kd [1, 48]: ≥ 20 µM
Kd [13, 48]: ≥ 20 µM
Kd [35]: ≥ 20 µM
Kd [36]: ≥ 20 µM
Kd [37]: ≥ 20 µM
Kd [38]: ≥ 20 µM
Kd [39]: ≥ 20 µM
Kd [40]: ≥ 20 µM
Kd ([15]; source organism: Limestone Canyon virus): ≥ 20 µM
Kd [41]: ≥ 20 µM
Kd [42]: ≥ 20 µM
Kd [43]: 0.254 µM
Kd [5, 48]: ≥ 20 µM
Kd [8, 48]: ≥ 20 µM
Kd [9, 48]: ≥ 20 µM
Kd [10, 48]: ≥ 20 µM
Kd [12, 48]: ≥ 20 µM

KVIDIDLER
Kd ([1]; source organism: Mycobacterium tuberculosis): 0.0139 µM
Kd ([2]; source organism: Mycobacterium tuberculosis C): 0.0192 µM

LMYILGTYG
Kd [20]: 0.125 µM
Kd [24]: ≥ 23.3 µM
Kd [25]: 3.75 µM
Kd [26]: 0.062 µM
Kd [27]: 0.951 µM

LSTTRFQSM
Kd [20]: 2.5 µM
Kd [24]: 9.77 µM
Kd [25]: 1.08 µM
Kd [26]: 5.82 µM
Kd [27]: 3.97 µM

SSMVNGVVR
Kd [1, 49]: 0.0261 µM
Kd [2, 49]: 0.0184 µM

VLWDTPSPK
Kd [1, 50]: 0.0045 µM
Kd [2, 50]: 0.0339 µM

WFSSGLWPF
Kd ([3]; source organism: Nostoc punctiforme PCC 73102): 0.0039 µM
Kd [44]: ≥ 20 µM
